According to the DeepSol protein solubility set:

Assay: soluble on expression in E. coli; label from the status in PepcDB or PDB records

Sequence	soluble on expression in E. coli
MPQPESENLSVKLFKNHKQALETSGLVPYLPSSLEQLEQSGRTWYRELRRPQWIWQGVDAIELESILARIANSQKHRSRDEWLDTVSGYHSGNWAYEWIHAGMEHQKTASELDGDEAAEAYFKASLYFSVAGYPHIKGDNLAIQSQVLASQAYDMAAKQTSHRVEKILVPYQGRKITCYLHLPNTEKPLPVVIVSGGMDSLQTDMWRLYRDFLAPNNMAMLTLDMPSIGHSSHWPLSEDSSCLHQAVLNYLPNIPWVDRFHAAVMGFRFGGNVALRLSFLEPSRLKACVALGAPVHQILTNSARLKTMPKMYLDVLASRLAKQVVDINSLTSQMQAWSLKNQGFLSGGRKTSVSVLAIGLKDDPVSPKSDNKLAALFSKYGKGVELNSKTLHSGYEEALKQMIEWIKEEMKQ	not soluble
SGPWANICAGKSSNEIRTCDRHGCGQYSAQRSQRPHQGVDVLCSAGSTVYAPFTGMIVGQEKPYQNKNAINNGVRISGRGFCVKMFYIKPIKYKGPIKKGEKLGTLLPLQKVYPGIQSHVHIENCDSSDPTAYL	soluble
MFCTFFEKHHRKWDILLEKSTGVMEAMKVTSEEKEQLSTAIDRMNEGLDAFIQLYNESEIDEPLIQLDDDTAELMKQARDMYGQEKLNEKLNTIIKQILSISVSEEGEKE	soluble
SFRRKLTALEYHNPTGFDCKDETEFRNFIVWLEDQKIRHYKIEDRGNLRNIPSSDWPKYFEKYLQDVNCPFSVQERQETVDWLLGLAVRFEYGDNVEKYRNCKPVTETNDVQKSADPLINLDSNNPDFKAGVLALANLLKIQRHDDYLVMLKAIKILVQERLTPDAIAKASQAKEGLPVTLDKHILGFDTGDATLNEAAQVLRLLHIEELRELQTKINEAIVAVQAIIADPKTDHRLGKVGR	soluble
MNAFNLIIIGDEILHGSSQDKHFAFFKSLLESKGLKLNQVQYLPDEPDLLVRQLRRSFSDGMPTFVTGGIGATPDDHTRQAAAAALDLPVVRHSEAAKFIEGITQKRGEPLDSPEHAQRLKMADFPEGAELVPNPFNNIAGFSIREHYFFPGFPVMAHPMAEWVLETYYADRFNQTERGSRSVYVFEQPESRITPLMEHIEQTYPGVRSYSLPSVGWTHSDGTQVKPHIEFGIKAEGEAVNLLDAAWAEVLHSLDGLGAELKNRVN	not soluble
AHHHHHHGSGGMTIAEKILATHAGKEEVKPGEIVLAKVDFMFGNDVTTPLAIKTFRKIGVEKVFDPERIAIVLDHFTPNKDIKAAEQCKFSREFAREQGIKWFFEGGNVGVEHCLLPELGLVLPGELIIGADSHTCTYGALGAFATGVGSTDLAVAMATGEAWFRVPETIKFVYEGDLQPWVTSKDLILYTIGDIGVNGALYKVMEFSGEVIEKLSVEQRMTMTNMAIEAGAKTGIIEPDKKTIEYVKGRAKREYKIYKSDEDAKYYKVIEYDVSKIEPQVAFPHLPENTVPISKAAKMNIKIDQVVIGSCTNGRLEDLRMAAEVLEGQKVAPWVRLIILPCSPTVYFKAMKEGLLEIFLEAGAVIGPPTCGPCLGGHMGILASGERAVSTTNRNFVGRMGHPKSEVYLASPYVAAASAILGRIASPEEVVK	soluble
MSSFDKNDERAQLMVPKSINEGKVVKLSQKTLVTKKIERQVVPEEKYIAGLDKIIEKDYFPHLKKMQAQKEYLEAVANKDINKIKELQMKFCSTGSVRTDRSFRTPITTRSTTEAPDVSSFDADTPGPSSASTSSAHDWMQSPMPFANEEGDNEALNRKRKKKKEETLTSYLNKYTSEDNASFEELAKVMREREDARRPWVYKAEEEHNKNLVTRQAIAAEADVQLALKHAVDADDNRPLNVDNWAYKAWNTVLFNPDGAALTPAEIADAARKQQTEINKRGTRFPDSGKLKPSDEAMTRAAVSHALANAGKVDFLGNEVTPANSFKLLETPNPNPDDMDSPLMTWGEIDGTPFRLDAPDVTEHSLPGAAPVFKIPEVPYREKIAQSMNDSIAAKYRDKRKVAMRAAEGAHRTPGFGSKRVSDKLAQLSPAAQKLATKKLGLKMLPAHKSPFASPKIMSNWSRPSSSKRSTTPGSAWSRGSTTPGSSWSQGAQTPGTPGIESMIRRKGDNVGPSTSAGAADRANAGDFF	not soluble
MGSDKIHHHHHHMPGSHNITKQTGASKMSSTRGAFFPDALMQQVKARFHHVDHDLDGRARLFFDNAGGSFRLKAAVDAYARIDALPDCPERIHERALDLQAIQSRGEDDVRTILNAQGGTVYASLTASGAMFDMVRAIMENVPGTNAVTTVLEHPSSYDAMTYYAERTGKTLRIAPSNPETGGVDVDAIVSLIDADTALLSVMFASNISGAKFDIEAIVARARQKKPGLFIVVDAVQHAPHGIIDLQRTPVDGINFAPYKFFGCRGSGISWLSPRAAALPHHRLAAKESGVWELGSPAPAQFAVVTSIVDYVKWIGRYFVDSDDRRTLFVEGMHRIELHERALLAALLDGCGGRRGLRSIDGVEVYWDHDDLTKRDLIVGIGFAHLEPTQAVREYEKHGVIVYERVASSLYSGRMLKSFRLAGAVRISPLHCHAPDDIARFLAITGTLAANR	not soluble
MSLYVSKLFTSQQWRELKLISYVTENADAIGVKDKELSKALNISMLTLQTCLTNMQFMKEVGGITYKNGYITIWYHQHCGLQEVYQKALRHSQSFKLLETLFFRDFNSLEELAEELFVSLSTLKRLIKKTNAYLTHTFGITILTSPVQVSGDEHQIRLFYLKYFSEAYKISEWPFGEMLNLKNCERLLSLMIKEVDVRVNFTLFQHLKILSSVNLIRYYKGYSAVYDNKKTSHRFSQLIQSSLEIQDLSRLFYLKFGLYLDETTIAEMFSNHVNDQLEIGYAFDSIKQDSPTGCRKVTNWVHLLDELEIRLNLSVTNKYEVAVILHNTTVLKEEDITANYLFFDYKKSYLNFYKQEHPHLYKAFVAGVEKLMRSEKEPISKELTNQLIYAFFITWENSFLKVNQKDEKIRLLVIERSFNSVGNFLKKYIGEFFSITNFNELDALTIDLEEIEKQYDVIVTDVMVGKSDELEIFFFYKMIPEAIIDKLNCVFKHQLCRQEGHHHHHH	not soluble
MSLFPILETDRLILRQITDQDAEAIFACFSNDEVTRYYGLENMESIEQAISMIQTFAALYQEKRGIRWGIERRDTKELIGTIGFHALAQKHRRAEIGYEIIPEHWRNGFASEVISKVVSYGFSALGLSRIGAVVFTDNEASNRLLLKMGFQKEGVLRQYMYSKWDSIEGGSHHHHHH	soluble
MAHHHHHHMADVDEWRGASFKQEEDHSEATTSLLEKINATTIPVLLRSTNKSLQDLVDELLTLEKIARLGGDALSTQRLAVEVIRVYRVQGDYAKMLLVLEMLMRKRGQTKMTQSAMIAECAVMISDASLPKESRREVLERVVHLTDSRIHVELEHARFAIDLAKLMESEGQKRAACDLLSGLHVETITNMPRAEKLDALNCLIRLCLELEDYEHTPLVSRRINHRALARAESREAKLTYFELMRHYYTQRKSYFNVARCWYETYLTETEEGAKLAALSSMAVHYLIAEHATPKALEDLAECTAFSPATYFAERNAAIQGITTKLQKQLEDIPQLQYLLQRFTSIELIREKVAREVETLCANHPQLAGHEDRQLLLRSRCSEHDLLVVSRFYRRLRLDRLAQLVGLTPEHTEEFLMMMVASKTLYAKMDRVDGLVVFEAKKNATEVINGWNEAVERSVALLDKASHLIVKERMLHNISAARAQQAVTL	not soluble
MGSDKIHHHHHHVSLSFDFSPDFNPLAARMRPASVEEYIGQSHLLGEGKPLRQALLAGKVHSMLLWGPPGTGKTTLAELVARYANAHVERISAVTSGVKEIRAAIEQAKNVAQSRGQRTLLFVDEVHRFNKSQQDAFLPFIEDGTVIFIGATTENPSFEVNNALLSRCRVYLIKRLEDDAIGQILAQANSDEARGLGKRGLLLKAELKSAIARLCDGDARKALNLLELMSDLLPDGGEYNLELLSEVAGHQAAGYDKNGDQYYDLISAVHKSIRGSAPDAALYWFCRILEGGGDPLYVARRLLAIASEDIGNADPNAMTVALNAWDCFHRVGPAEGERAIAQAVIYLASAPKSNAVYTAFKAARVLARETGNAPVPNHLRNAPTKLMSELGVGEGYRYAHDEDGAFAAGENYFPEVLQHSRIYQPTARGFEKRIRDKLAHLDALNQQSGRKRYE	not soluble
MKLKIVFFGASLAGKSTTVRKLYEILKEKGLVKGEFMSIDTDEKRTLFVEMFLSKIPIDGQEIDFKILTTPGQFRLHPLRKAIMQGVDGLVFTVDSQTGREEINFLVLRETAHVLKDSTWIYTQYPSLFSTTREIFPTHFPLEHHHHHH	not soluble
QSRGEKRTAHNAIEKRYRSSINDKIIELKDLVVGTEAKLNKSAVLRKAIDYIRFLQHSNQKLKQENLSLRTAVHKSKSLKDL	soluble
MGSDKIHHHHHHLFTSLVKQAEEMGLLDLSSVAIDATKVEAYEKSVPRKNIIQNGNAADWGIKSDTNGNPIKWFGYKLHIGTDVRSGLPIAMKVTPANYSDSSVALELVEKCCANTQSKIVYFLMDAGYDHREIYSVIRDKYHAQAIIALNKRGAKQPPEGFDWDGTPICSARYRMVYWGSYQGVNKFRCPHIMGKCDCPFGSAWCSDSNYGMVVKTKVKDDPRLFSSPHRGSANWQKQYNLRTYSERCFSRFKENLGLEDGLNVRKITKVETHAYLCAITMIAAVIAINQDSSTRSSAA	not soluble
MFVGPSPPHTPLVNRRNINNHRPRNATVTSALPDIFLAAVSLLFLWSSPKPLVSLPPNRFSFPLNPRRRSITAMSRRSPPPPPPTQRFANPQSLSDWLESRLPSDSFAAWGVKPGTKNVHNLWLELSDGETSLADSTPPVRTVNVVTVRVIGKNGRILVEAHQELSDGSIRERFRPLSEKMKPEESPDEAVFRAIKEELGSIFNGDGDNIGQRIKILPGTYNRRVEERNSLSYPGLPARYALHSVNATVEGLPEQDFCTEEKEYEGGDSTKDSVETLAAGNAVTVKRHYWKWVSPDSIRS	not soluble
MARHFGMALAPWDVMGGGRFQSKKAMEERRKNGECIRSFVGASEQTDAEIKISEALAKVAEEHGTESVTAIAIAYVRSKAKNVFPSVEGGKIEDLKENIKALSIDLTPDNIKYLENVVPFDIGFPNTFIVLNSLTQKYGTNNV	soluble
MGGSHHHHHHGMASALDCCTENACSKPDDDILDIPLDDPGANAAAAKIQASFRGHMARKKIKSGERGRKGPGPGGPGGAGVARGGAGGGPSGD	not soluble
MGHHHHHHSHMSPAPVIPSNTDYPGPHHFEVTFQQSSTAKSATWTYSPLLKKLYCQIAKTCPIQIKVSTPPPPGTAIRAMPVYKKAEHVTDVVKRCPNHELGRDFNEGQSAPASHLIRVEGNNLSQYVDDPVTGRQSVVVPYEPPQVGTEFTTILYNFMCNSSCVGGMNRRPILIIITLEMRDGQVLGRRSFEGRICACPGRDRKADEDHYREQQALNE	soluble
MGSDKIHHHHHHMDPVLELEAVSKCFQRYRHPRDRLWELLFPRTSRVQTFQALENISLQVEPGRTIGIVGRNGAGKSTLLQIVAGTLTPSSGRVKVRGRVAALLELGSGFNPEFTGRQNVFFNGQLLGLTPQEIRDRFAEIVAFAEIGDFLDQPVKTYSSGMMVRLAFSVVAHLDPELLIVDEALAVGDARFQARCMKRIRELKEKGTTILFVSHDANAVRMLCDEAVLLEGGRILERGNPNWVLNHYNQLLGLEDRDNYRPLAQETQQAGLCYVEQAAHPNRHGNGRATISKAWLSGSGLQADKVLQGGDLTLTFQLQIHQDLPDALIGLSIRNLYGVVIYGTNNLQLEKRPKALAAGSSPELSFRWRNQLNAGVYTISIAITSEDCEVYDWIDEALVFEVVNDRFCEGVIDLGADLHWISEFSSPAAIATSRDSLGSTSPSS	not soluble
